In publication PMC4513098, “Ordered Regions of Channel Nucleoporins Nup62, Nup54, and Nup58 Form Dynamic Complexes in Solution*” (The Journal of Biological Chemistry, 2015):

Target: T1, Nup58(239–415), entire ordered region of Nup58 from Rattus norvegicus, His6 tag cleaved (Rattus norvegicus, UniProt P70581 239-415)
T1 construct: Nup58, Rattus norvegicus, residues 239-415 (entire ordered region); source: co-expressed with Nup54 and Nup62 from a polycistronic vector; not shown: His6, N-terminal, cleaved
T1 sequence: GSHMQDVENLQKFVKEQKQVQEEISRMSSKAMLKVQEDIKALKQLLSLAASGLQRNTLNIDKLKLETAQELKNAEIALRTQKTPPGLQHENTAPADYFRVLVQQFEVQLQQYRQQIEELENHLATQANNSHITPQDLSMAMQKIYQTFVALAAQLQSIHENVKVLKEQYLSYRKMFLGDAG
Experiment: SEC; competition: preassembled triple complex (1.5 mg/ml) incubated with Nup54 (453–494) wild type or H469F/Q473L (0.6 mg/ml), then size-exclusion chromatography and SDS-PAGE of column fractions
Details: both partners purified

binding result: binds
B1: wild-type Nup54 (453–494), Nup58-cognate segment of Nup54 (domain or fragment, Rattus norvegicus, UniProt P70582 453-494, looked up)
chain: EEKYYIDADLLREIKQHLKQQQEGLSHLISIIKDDLEDIKLV
notes: also called Nup54 segment; wt Nup54 (453–494)
